Assay results published in patent publication US12679878B2, “CRF2 receptor agonists and their use in therapy” (SANOFI, priority 2020, dated 2026).
Starred links: 1 amine or outer side, 2 acyl side, 3 side chain; linkers in the order of their positions; H or OH if unused. Non-standard residues stand in square brackets, D forms with d. Groups on a side chain read outwards from the residue. No end group written: not given here. *: point of attachment. γGlu = O=C(O)[C@H](CCC(=O)[*:2])N[*:1]; Palmitoyl = CCCCCCCCCCCCCCCC(=O)*; Aib = CC(C)(N)C(=O)O

B1: SEQ ID NO: 26 (peptide)
peptide: IVLSLD[dV]PTKLK([γGlu-Palmitoyl])KKLLKQERKRKERE[Aib]AEKNARILERV-NH2
modifications: N-terminus assumed
SMILES: CCCCCCCCCCCCCCCC(=O)N[C@@H](CCC(=O)NCCCC[C@H](NC(=O)[C@H](CC(C)C)NC(=O)[C@H](CCCCN)NC(=O)[C@@H](NC(=O)[C@@H]1CCCN1C(=O)[C@H](NC(=O)[C@H](CC(=O)O)NC(=O)[C@H](CC(C)C)NC(=O)[C@H](CO)NC(=O)[C@H](CC(C)C)NC(=O)[C@@H](NC(=O)[C@@H](N)[C@@H](C)CC)C(C)C)C(C)C)[C@@H](C)O)C(=O)N[C@@H](CCCCN)C(=O)N[C@@H](CCCCN)C(=O)N[C@@H](CC(C)C)C(=O)N[C@@H](CC(C)C)C(=O)N[C@@H](CCCCN)C(=O)N[C@@H](CCC(N)=O)C(=O)N[C@@H](CCC(=O)O)C(=O)N[C@@H](CCCNC(=N)N)C(=O)N[C@@H](CCCCN)C(=O)N[C@@H](CCCNC(=N)N)C(=O)N[C@@H](CCCCN)C(=O)N[C@@H](CCC(=O)O)C(=O)N[C@@H](CCCNC(=N)N)C(=O)N[C@@H](CCC(=O)O)C(=O)NC(C)(C)C(=O)N[C@@H](C)C(=O)N[C@@H](CCC(=O)O)C(=O)N[C@@H](CCCCN)C(=O)N[C@@H](CC(N)=O)C(=O)N[C@@H](C)C(=O)N[C@@H](CCCNC(=N)N)C(=O)N[C@H](C(=O)N[C@@H](CC(C)C)C(=O)N[C@@H](CCC(=O)O)C(=O)N[C@@H](CCCNC(=N)N)C(=O)N[C@H](C(N)=O)C(C)C)[C@@H](C)CC)C(=O)O
B2: SEQ ID NO: 27 (peptide)
peptide: IVLSLD[dV]PTKLK([γGlu-Palmitoyl])KKLLKQERKRKEREQAEKNARILERV-NH2
modifications: N-terminus assumed
SMILES: CCCCCCCCCCCCCCCC(=O)N[C@@H](CCC(=O)NCCCC[C@H](NC(=O)[C@H](CC(C)C)NC(=O)[C@H](CCCCN)NC(=O)[C@@H](NC(=O)[C@@H]1CCCN1C(=O)[C@H](NC(=O)[C@H](CC(=O)O)NC(=O)[C@H](CC(C)C)NC(=O)[C@H](CO)NC(=O)[C@H](CC(C)C)NC(=O)[C@@H](NC(=O)[C@@H](N)[C@@H](C)CC)C(C)C)C(C)C)[C@@H](C)O)C(=O)N[C@@H](CCCCN)C(=O)N[C@@H](CCCCN)C(=O)N[C@@H](CC(C)C)C(=O)N[C@@H](CC(C)C)C(=O)N[C@@H](CCCCN)C(=O)N[C@@H](CCC(N)=O)C(=O)N[C@@H](CCC(=O)O)C(=O)N[C@@H](CCCNC(=N)N)C(=O)N[C@@H](CCCCN)C(=O)N[C@@H](CCCNC(=N)N)C(=O)N[C@@H](CCCCN)C(=O)N[C@@H](CCC(=O)O)C(=O)N[C@@H](CCCNC(=N)N)C(=O)N[C@@H](CCC(=O)O)C(=O)N[C@@H](CCC(N)=O)C(=O)N[C@@H](C)C(=O)N[C@@H](CCC(=O)O)C(=O)N[C@@H](CCCCN)C(=O)N[C@@H](CC(N)=O)C(=O)N[C@@H](C)C(=O)N[C@@H](CCCNC(=N)N)C(=O)N[C@H](C(=O)N[C@@H](CC(C)C)C(=O)N[C@@H](CCC(=O)O)C(=O)N[C@@H](CCCNC(=N)N)C(=O)N[C@H](C(N)=O)C(C)C)[C@@H](C)CC)C(=O)O
B3: SEQ ID NO: 28 (peptide)
peptide: IVLSLD[dV]PTKLK([γGlu-Palmitoyl])KKLLKQERKRKEREKAEKAARILERV-NH2
modifications: N-terminus assumed
SMILES: CCCCCCCCCCCCCCCC(=O)N[C@@H](CCC(=O)NCCCC[C@H](NC(=O)[C@H](CC(C)C)NC(=O)[C@H](CCCCN)NC(=O)[C@@H](NC(=O)[C@@H]1CCCN1C(=O)[C@H](NC(=O)[C@H](CC(=O)O)NC(=O)[C@H](CC(C)C)NC(=O)[C@H](CO)NC(=O)[C@H](CC(C)C)NC(=O)[C@@H](NC(=O)[C@@H](N)[C@@H](C)CC)C(C)C)C(C)C)[C@@H](C)O)C(=O)N[C@@H](CCCCN)C(=O)N[C@@H](CCCCN)C(=O)N[C@@H](CC(C)C)C(=O)N[C@@H](CC(C)C)C(=O)N[C@@H](CCCCN)C(=O)N[C@@H](CCC(N)=O)C(=O)N[C@@H](CCC(=O)O)C(=O)N[C@@H](CCCNC(=N)N)C(=O)N[C@@H](CCCCN)C(=O)N[C@@H](CCCNC(=N)N)C(=O)N[C@@H](CCCCN)C(=O)N[C@@H](CCC(=O)O)C(=O)N[C@@H](CCCNC(=N)N)C(=O)N[C@@H](CCC(=O)O)C(=O)N[C@@H](CCCCN)C(=O)N[C@@H](C)C(=O)N[C@@H](CCC(=O)O)C(=O)N[C@@H](CCCCN)C(=O)N[C@@H](C)C(=O)N[C@@H](C)C(=O)N[C@@H](CCCNC(=N)N)C(=O)N[C@H](C(=O)N[C@@H](CC(C)C)C(=O)N[C@@H](CCC(=O)O)C(=O)N[C@@H](CCCNC(=N)N)C(=O)N[C@H](C(N)=O)C(C)C)[C@@H](C)CC)C(=O)O
B4: SEQ ID NO: 31 (peptide)
peptide: IVLSLD[dV]PTKLK([γGlu-Palmitoyl])QKLLKQERQRKEREQAEKN[Aib]RILERV-NH2
modifications: N-terminus assumed
SMILES: CCCCCCCCCCCCCCCC(=O)N[C@@H](CCC(=O)NCCCC[C@H](NC(=O)[C@H](CC(C)C)NC(=O)[C@H](CCCCN)NC(=O)[C@@H](NC(=O)[C@@H]1CCCN1C(=O)[C@H](NC(=O)[C@H](CC(=O)O)NC(=O)[C@H](CC(C)C)NC(=O)[C@H](CO)NC(=O)[C@H](CC(C)C)NC(=O)[C@@H](NC(=O)[C@@H](N)[C@@H](C)CC)C(C)C)C(C)C)[C@@H](C)O)C(=O)N[C@@H](CCC(N)=O)C(=O)N[C@@H](CCCCN)C(=O)N[C@@H](CC(C)C)C(=O)N[C@@H](CC(C)C)C(=O)N[C@@H](CCCCN)C(=O)N[C@@H](CCC(N)=O)C(=O)N[C@@H](CCC(=O)O)C(=O)N[C@@H](CCCNC(=N)N)C(=O)N[C@@H](CCC(N)=O)C(=O)N[C@@H](CCCNC(=N)N)C(=O)N[C@@H](CCCCN)C(=O)N[C@@H](CCC(=O)O)C(=O)N[C@@H](CCCNC(=N)N)C(=O)N[C@@H](CCC(=O)O)C(=O)N[C@@H](CCC(N)=O)C(=O)N[C@@H](C)C(=O)N[C@@H](CCC(=O)O)C(=O)N[C@@H](CCCCN)C(=O)N[C@@H](CC(N)=O)C(=O)NC(C)(C)C(=O)N[C@@H](CCCNC(=N)N)C(=O)N[C@H](C(=O)N[C@@H](CC(C)C)C(=O)N[C@@H](CCC(=O)O)C(=O)N[C@@H](CCCNC(=N)N)C(=O)N[C@H](C(N)=O)C(C)C)[C@@H](C)CC)C(=O)O
B5: SEQ ID NO: 30 (peptide)
peptide: IVLSLD[dV]PTKLK([γGlu-Palmitoyl])KKLLKQERKRKEREQAEKAARILERV-NH2
modifications: N-terminus assumed
SMILES: CCCCCCCCCCCCCCCC(=O)N[C@@H](CCC(=O)NCCCC[C@H](NC(=O)[C@H](CC(C)C)NC(=O)[C@H](CCCCN)NC(=O)[C@@H](NC(=O)[C@@H]1CCCN1C(=O)[C@H](NC(=O)[C@H](CC(=O)O)NC(=O)[C@H](CC(C)C)NC(=O)[C@H](CO)NC(=O)[C@H](CC(C)C)NC(=O)[C@@H](NC(=O)[C@@H](N)[C@@H](C)CC)C(C)C)C(C)C)[C@@H](C)O)C(=O)N[C@@H](CCCCN)C(=O)N[C@@H](CCCCN)C(=O)N[C@@H](CC(C)C)C(=O)N[C@@H](CC(C)C)C(=O)N[C@@H](CCCCN)C(=O)N[C@@H](CCC(N)=O)C(=O)N[C@@H](CCC(=O)O)C(=O)N[C@@H](CCCNC(=N)N)C(=O)N[C@@H](CCCCN)C(=O)N[C@@H](CCCNC(=N)N)C(=O)N[C@@H](CCCCN)C(=O)N[C@@H](CCC(=O)O)C(=O)N[C@@H](CCCNC(=N)N)C(=O)N[C@@H](CCC(=O)O)C(=O)N[C@@H](CCC(N)=O)C(=O)N[C@@H](C)C(=O)N[C@@H](CCC(=O)O)C(=O)N[C@@H](CCCCN)C(=O)N[C@@H](C)C(=O)N[C@@H](C)C(=O)N[C@@H](CCCNC(=N)N)C(=O)N[C@H](C(=O)N[C@@H](CC(C)C)C(=O)N[C@@H](CCC(=O)O)C(=O)N[C@@H](CCCNC(=N)N)C(=O)N[C@H](C(N)=O)C(C)C)[C@@H](C)CC)C(=O)O
B6: SEQ ID NO: 29 (peptide)
peptide: IVLSLD[dV]PTKLK([γGlu-Palmitoyl])KKLLKQERKRKERE[Aib]AEKAARILERV-NH2
modifications: N-terminus assumed
SMILES: CCCCCCCCCCCCCCCC(=O)N[C@@H](CCC(=O)NCCCC[C@H](NC(=O)[C@H](CC(C)C)NC(=O)[C@H](CCCCN)NC(=O)[C@@H](NC(=O)[C@@H]1CCCN1C(=O)[C@H](NC(=O)[C@H](CC(=O)O)NC(=O)[C@H](CC(C)C)NC(=O)[C@H](CO)NC(=O)[C@H](CC(C)C)NC(=O)[C@@H](NC(=O)[C@@H](N)[C@@H](C)CC)C(C)C)C(C)C)[C@@H](C)O)C(=O)N[C@@H](CCCCN)C(=O)N[C@@H](CCCCN)C(=O)N[C@@H](CC(C)C)C(=O)N[C@@H](CC(C)C)C(=O)N[C@@H](CCCCN)C(=O)N[C@@H](CCC(N)=O)C(=O)N[C@@H](CCC(=O)O)C(=O)N[C@@H](CCCNC(=N)N)C(=O)N[C@@H](CCCCN)C(=O)N[C@@H](CCCNC(=N)N)C(=O)N[C@@H](CCCCN)C(=O)N[C@@H](CCC(=O)O)C(=O)N[C@@H](CCCNC(=N)N)C(=O)N[C@@H](CCC(=O)O)C(=O)NC(C)(C)C(=O)N[C@@H](C)C(=O)N[C@@H](CCC(=O)O)C(=O)N[C@@H](CCCCN)C(=O)N[C@@H](C)C(=O)N[C@@H](C)C(=O)N[C@@H](CCCNC(=N)N)C(=O)N[C@H](C(=O)N[C@@H](CC(C)C)C(=O)N[C@@H](CCC(=O)O)C(=O)N[C@@H](CCCNC(=N)N)C(=O)N[C@H](C(N)=O)C(C)C)[C@@H](C)CC)C(=O)O

These binders were tested against human corticotropin-releasing factor 2α (CRF2 α receptor) (human), Q13324 (assay: cell-based or functional assay).
Sequence of human corticotropin-releasing factor 2α (CRF2 α receptor) (human), Q13324 (Q13324 20-411): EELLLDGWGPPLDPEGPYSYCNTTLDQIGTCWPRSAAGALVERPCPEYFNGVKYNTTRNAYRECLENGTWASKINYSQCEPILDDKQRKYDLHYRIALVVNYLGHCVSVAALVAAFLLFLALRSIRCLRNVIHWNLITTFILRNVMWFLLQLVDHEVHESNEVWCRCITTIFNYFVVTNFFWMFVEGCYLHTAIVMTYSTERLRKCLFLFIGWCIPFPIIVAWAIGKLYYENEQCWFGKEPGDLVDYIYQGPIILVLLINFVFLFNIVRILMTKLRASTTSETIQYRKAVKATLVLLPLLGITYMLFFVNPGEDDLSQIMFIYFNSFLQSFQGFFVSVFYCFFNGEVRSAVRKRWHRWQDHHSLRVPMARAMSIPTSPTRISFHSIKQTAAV
B1 was tested, and the EC50 [nM], 0% HSA was 0.01 nM.
With IVLSLD[dV]PTKLK([γGlu-Palmitoyl])QKLLKQERQRKEREQAEKNVRILERV-NH2 [SEQ ID NO: 32] the EC50 [nM], 0% HSA was 0.01 nM.
For B2, the EC50 [nM], 0% HSA was 0.01 nM.
In the case of B3, the EC50 [nM], 0% HSA is reported as 0.14 nM.
Work on B4 yielded an EC50 [nM], 0% HSA of 0.01 nM.
B5 was tested, and the EC50 [nM], 0% HSA was 0.16 nM.
B6 gave an EC50 [nM], 0% HSA of 0.12 nM.
